The record followed here is US20240287172A1 (SCIRHOM, published 2024).

What all share (assay): FACS on MEF-DKO cells
The target of one experiment is T1, hiR2-FL-L539A-T7 (human, UniProt Q6PJF5 1-856).
T1 construct: on MEF-DKO cells
T1 sequence: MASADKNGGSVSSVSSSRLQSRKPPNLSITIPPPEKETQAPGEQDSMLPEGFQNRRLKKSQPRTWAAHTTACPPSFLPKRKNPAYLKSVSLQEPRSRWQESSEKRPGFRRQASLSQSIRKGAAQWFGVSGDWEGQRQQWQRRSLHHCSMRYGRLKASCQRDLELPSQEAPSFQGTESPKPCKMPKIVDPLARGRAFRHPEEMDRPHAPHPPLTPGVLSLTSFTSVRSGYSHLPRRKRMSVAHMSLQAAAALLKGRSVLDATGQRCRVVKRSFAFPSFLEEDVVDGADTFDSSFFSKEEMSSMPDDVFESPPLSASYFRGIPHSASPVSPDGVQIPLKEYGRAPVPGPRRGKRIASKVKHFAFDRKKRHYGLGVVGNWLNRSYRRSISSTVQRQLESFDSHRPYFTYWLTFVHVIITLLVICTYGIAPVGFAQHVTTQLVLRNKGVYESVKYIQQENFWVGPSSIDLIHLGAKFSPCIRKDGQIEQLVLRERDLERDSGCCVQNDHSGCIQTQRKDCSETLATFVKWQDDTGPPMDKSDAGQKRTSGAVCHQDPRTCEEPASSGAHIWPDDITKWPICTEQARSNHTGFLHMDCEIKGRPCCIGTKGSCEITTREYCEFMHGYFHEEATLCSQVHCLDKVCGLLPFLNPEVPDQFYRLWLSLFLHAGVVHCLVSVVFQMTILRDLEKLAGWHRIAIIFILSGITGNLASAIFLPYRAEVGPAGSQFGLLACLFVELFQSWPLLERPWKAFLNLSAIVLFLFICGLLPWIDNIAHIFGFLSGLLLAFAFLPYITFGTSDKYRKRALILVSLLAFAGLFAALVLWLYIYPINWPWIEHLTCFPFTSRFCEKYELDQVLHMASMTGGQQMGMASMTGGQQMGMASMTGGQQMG

Experiment [1] concerns the target T2, hiR2-FL-D535-T7 (deletion of D535) (human, UniProt Q6PJF5 1-856).
T2 construct: single amino acid deletion
T2 sequence: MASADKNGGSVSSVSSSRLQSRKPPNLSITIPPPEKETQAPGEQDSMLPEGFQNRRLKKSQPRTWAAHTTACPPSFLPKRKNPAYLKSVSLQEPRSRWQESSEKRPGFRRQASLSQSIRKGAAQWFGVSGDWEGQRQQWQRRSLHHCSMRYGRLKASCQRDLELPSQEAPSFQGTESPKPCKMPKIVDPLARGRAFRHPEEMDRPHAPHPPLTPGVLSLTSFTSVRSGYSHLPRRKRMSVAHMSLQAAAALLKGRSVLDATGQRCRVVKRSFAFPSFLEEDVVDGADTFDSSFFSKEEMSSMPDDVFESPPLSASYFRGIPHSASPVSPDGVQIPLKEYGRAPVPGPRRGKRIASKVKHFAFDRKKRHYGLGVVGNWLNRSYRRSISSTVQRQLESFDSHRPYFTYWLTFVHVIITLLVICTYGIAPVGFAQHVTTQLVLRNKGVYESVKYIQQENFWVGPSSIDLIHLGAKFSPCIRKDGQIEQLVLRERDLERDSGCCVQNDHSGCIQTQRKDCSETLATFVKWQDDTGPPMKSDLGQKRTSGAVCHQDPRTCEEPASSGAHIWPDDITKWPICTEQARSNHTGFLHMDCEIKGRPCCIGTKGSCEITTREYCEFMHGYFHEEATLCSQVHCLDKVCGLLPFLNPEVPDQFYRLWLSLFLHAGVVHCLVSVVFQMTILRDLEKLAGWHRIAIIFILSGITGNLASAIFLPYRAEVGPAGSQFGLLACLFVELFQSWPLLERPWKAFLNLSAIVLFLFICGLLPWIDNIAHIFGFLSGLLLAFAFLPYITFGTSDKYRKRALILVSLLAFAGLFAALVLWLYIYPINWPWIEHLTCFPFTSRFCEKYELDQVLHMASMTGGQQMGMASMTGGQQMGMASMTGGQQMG

Experiment [2] addresses T3, hiR2-FL-K536-T7 (deletion of K536) (human, UniProt Q6PJF5 1-856).
T3 construct: single amino acid deletion
T3 sequence: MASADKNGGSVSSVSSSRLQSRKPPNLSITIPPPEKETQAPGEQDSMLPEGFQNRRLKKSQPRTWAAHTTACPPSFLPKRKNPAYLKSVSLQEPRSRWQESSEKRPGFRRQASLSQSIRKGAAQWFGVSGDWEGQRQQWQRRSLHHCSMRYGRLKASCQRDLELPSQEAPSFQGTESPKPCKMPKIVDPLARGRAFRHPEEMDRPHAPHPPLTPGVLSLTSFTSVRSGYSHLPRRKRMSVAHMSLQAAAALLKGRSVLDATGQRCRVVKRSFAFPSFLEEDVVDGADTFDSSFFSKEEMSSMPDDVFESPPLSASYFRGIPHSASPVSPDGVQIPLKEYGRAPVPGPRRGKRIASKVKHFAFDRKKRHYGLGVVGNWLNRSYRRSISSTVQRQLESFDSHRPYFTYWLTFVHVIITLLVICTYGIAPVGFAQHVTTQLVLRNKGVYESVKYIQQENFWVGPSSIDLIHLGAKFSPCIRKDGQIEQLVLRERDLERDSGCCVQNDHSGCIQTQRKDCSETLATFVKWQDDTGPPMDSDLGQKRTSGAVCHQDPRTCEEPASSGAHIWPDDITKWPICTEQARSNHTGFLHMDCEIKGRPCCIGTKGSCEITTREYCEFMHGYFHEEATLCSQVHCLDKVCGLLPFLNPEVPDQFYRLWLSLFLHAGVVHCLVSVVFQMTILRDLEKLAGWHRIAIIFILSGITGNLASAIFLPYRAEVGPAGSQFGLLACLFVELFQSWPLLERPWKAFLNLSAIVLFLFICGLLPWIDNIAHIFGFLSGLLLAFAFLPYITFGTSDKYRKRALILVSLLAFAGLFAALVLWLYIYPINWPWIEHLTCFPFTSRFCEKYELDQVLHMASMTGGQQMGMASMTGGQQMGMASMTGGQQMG

B1: antibody 5 (antibody, V domains shown)
VH: QVTLKESGPGILQPSQTLSLTCSFSGFSLSTFGMGVGWIRQPSGKGLEWLAHIWWDDEKYYNSALKSRLTISKATSKNQAFLKIANVDTADTATYYCARISNYGSNYWYFNVWGTGTTVTVSS
VL: QVVLTQSPALMSASPGEKVTMTCSAGSSVSCMYWYQQKPGSSPRVLIYDTSNLASGVPARFTGSGSGTSYSLTISRMEAEDAASYYCQQWNSYPLTFGAGTKLELK
notes: mouse IgG, kappa light chain; also called clone #5; purified antibody 5
In the case of B1, the binding result (with hiR2-FL-L539A-T7; in experiment [1]; in experiment [2]) was “no binding (tested: 3 µg/ml)” throughout.

B2: antibody 42 (antibody, V domains shown)
VH: QVTLKESGPGILQPSQTLSLTCSLSGFSLSTFGRGVGWIRQPSGKGLEWLAHIWWDDEKYYNPALKSRLTISKDTSKNQVFLRIANVDTADTATYYCARIQNYGSNYWYFDVWGTGTTVTVSS
VL: LIVLTQSPAIMSASPGEKVTMTCGATSRISYMFWYQQKPGSSPRVLIYDTSNLASGVPVRFSGSGSGTSYSLTISRVEAEDVATYYCQQWNSYPLTFGAGTKLELK
notes: mouse IgG, kappa light chain; also called clone #42; purified antibody 42
For B2, the binding result (with hiR2-FL-L539A-T7; in experiment [1]; in experiment [2]) was “no binding (tested: 3 µg/ml)” throughout.

B3: antibody 43 (antibody, V domains shown)
VH: QVALKESGPGILQPSQTLSLTCSFSGFSLSTFGMGVGWIRQSSGKGLEWLANIWWDDDKYYNPALKSRLTISKDASKNQAFLKIANVDTADTATYYCARIGNYGSNYWYFDVWGTGTTVTVSS
VL: QIVLTQSPAIMSASPGERVTMTCSANSRISYMYWYQQKPGSSPRLLIYDTSNLASGVPVRFSGSGSGTSYSLTISRMEAEDAATYNCQQWSSYPLTFGAGTKLELK
notes: mouse IgG, kappa light chain; also called clone #43; purified antibody 43
Take B3: the binding result (with hiR2-FL-L539A-T7; in experiment [1]; in experiment [2]) was “no binding (tested: 3 µg/ml)” each time.

B4: antibody 44 (antibody, V domains shown)
VH: QVTLKESGPGILQPSQTLSLTCSFSGFSLSTFGMGVGWIRQPSEKGLEWLAHIWWDDDKYYNPALKSRLTISKDTSKNQIFLKITNVDTAETATYYCSRIGNYGSNYWYFDVWGTGTTVTVSS
VL: QIVLTQSPAVMSASPGEKVTMTCTASSSVYYMYWYQQTPGSSPRLLIYDTSNLASGVPVRFSGSGSGTSYSLTISRMEAEDAATYYCQQWNTYPLTFGAGTKLELK
notes: mouse IgG, kappa light chain; also called clone #44; purified antibody 44
B4: the binding result (in the experiment with hiR2-FL-L539A-T7; in experiment [1]; in experiment [2]) was “no binding (tested: 3 µg/ml)” in each case.

B5: antibody 22 (antibody, V domains shown)
VH: QVTLKESGPGILQPSQTLSLTCSFSGFSLSTFGMGVGWIRQPSGKGLEWLAHIWWDDEKYYNSALKSRLTISKATSKNQVFLKIANVDTADTATYYCARISNYGSNYWYFNVWGTGTTVTVSS
VL: QVVLTQSPALMSASPGEKVTMTCSAGSSVSYMYWYQQKPGSSPRVLIYDTSNLASGVPARFTGSGSGTSYSLTISRMEAEDAATYYCQQWNSYPLTFGAGTKLELK
notes: mouse IgG, kappa light chain; also called clone #22; purified antibody 22
Consider B5, for which the binding result (in the experiment with hiR2-FL-L539A-T7; in experiment [1]; in experiment [2]) was “no binding (tested: 3 µg/ml)” each time.

B6: antibody 16 (antibody, V domains shown)
VH: QVTLKESGPGILQPSQTLSLTCSFSGFSLSTFALGVGWIRQPSGRGLEWLAHIWWDDDKYYNPALKSRLTISKDTSKNHVFLKIANVDTADTATYYCARITTYYYGMDYWGQGTSVTVSS
VL: DIVLSQSPATLSVTPGDSVSLFCRASQSIGNHLHWYQQESHASPRLLIKYASQSISGIPSRFSGSGSGTDFTLSINSVETEDFGMYFCQQSYNWPLTFGAGTKLELK
notes: mouse IgG, kappa light chain; also called clone #16; purified antibody 16
Regarding B6, the binding result in experiment [1] and in experiment [2] was “no binding (tested: 3 µg/ml)” throughout.

B7: antibody 3 (antibody, V domains shown)
VH: QVTLKESGPGILQPSQTLSLTCSFSGFSLTTFAMGIGWVRQPSGKGLEWLAHIWWDGEKYNNPVLKSRLTISKDTSKNQVFLRIANVDTPDTATYYCARISSIYYIIDNWGQGTSVTVSS
VL: DIVLTQSPATLSVTPGHSVSLSCRASQSISNNLHWYQKKSHESPRLLIKYVSQSISGIPSRFSGSGSGTDFTLSINSVETEDFGMYFCQQSYNWPLTFGAGTKLELK
notes: mouse IgG, kappa light chain; also called clone #3; purified antibody 3
As to B7, the binding result in experiment [1] and in experiment [2] was “no binding (tested: 3 µg/ml)” throughout.

B8: antibody 34 (antibody, V domains shown)
VH: QVTLKESGPGILQPSQTLSLTCSFSGFSLSTFSLGVGWIRQSSGKGLEWLAHIWWDDEKYYNPALKSRLTISKDTSKNQVFLKIANVDAADTATYYCARAYYSKSYYALDYWGQGTSVTVSS
VL: DIQMTQSPSSLSASLGERVSLTCRASQEISGYLSWLQQKPDGTIKRLIYAASTLDSGVPKRFSGSRSGSDYSLAISSLESEDFADYYCLQYANFPFTFGSGTKLEIK
notes: mouse IgG, kappa light chain; also called clone #34; purified antibody 34
For the molecule B8, the binding result (with hiR2-FL-L539A-T7; in experiment [1]; in experiment [2]) was “no binding (tested: 3 µg/ml)” each time.
